Source: US20120219559A1 (Johns Hopkins, published 2012)
Read-outs that look alike come from different tables or passages of the source.

Tests used:
[1] = molecular target: T1, human B7-H2Ig fusion protein (human, UniProt O75144 19-258); experiment: SPR (BIAcore 3000); comparison of ICOSIg and CD28Ig on immobilized B7-H2Ig
T1 construct: Ig (Fc) part not given
T1 sequence: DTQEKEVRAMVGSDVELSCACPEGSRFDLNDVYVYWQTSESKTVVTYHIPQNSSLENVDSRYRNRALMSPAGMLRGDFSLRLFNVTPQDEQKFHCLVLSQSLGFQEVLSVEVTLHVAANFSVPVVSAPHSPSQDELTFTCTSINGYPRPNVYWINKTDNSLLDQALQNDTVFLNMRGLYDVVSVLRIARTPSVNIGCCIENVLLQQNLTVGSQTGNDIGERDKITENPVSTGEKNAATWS
Experimental: (§1) For all experiments, the same fusion proteins were injected into uncoated control flow cells to serve as the control. Binding data was overlaid with the fit of 1:1 interaction model.
(§2) Surface Plasmon Resonance. Protein interactions were measured and analyzed on a BIAcore 3000 instrument (BIAcore AB, Uppsala, Sweden) performed at 25° C. as described previously 20. […] Hepes, pH 7.4, containing 0.15 M NaCl, 0.005% surfactant P20 (HBS) was used as running buffer. […] All other reagents were purchased from BIAcore. […] The remaining activated carboxyl groups were blocked with 1 M ethanolamine (pH 8.5). Subsequently, the flow cells were extensively washed with HBS to generate a stable baseline. […] The flow cells were regenerated by two consecutive 10-second pulses with 10 mM NaOH. Data was analyzed by BIAevaluation software 4.1 (BIAcore).

[2] = molecular target: T1, human B7-H2Ig fusion protein; experiment: SPR (BIAcore 3000), ICOSIg injected over B7-H2Ig coupled at 500 RU, 1:1 fit
Experimental: as §1, §2

[3] = molecular target: T2, human CTLA-4, full length, expressed on cells (CTLA-4+293T cells) (human, UniProt P16410 36-223); experiment: CDS well image, 293T cells transfected with the human gene, stained with the human fusion protein
T2 sequence: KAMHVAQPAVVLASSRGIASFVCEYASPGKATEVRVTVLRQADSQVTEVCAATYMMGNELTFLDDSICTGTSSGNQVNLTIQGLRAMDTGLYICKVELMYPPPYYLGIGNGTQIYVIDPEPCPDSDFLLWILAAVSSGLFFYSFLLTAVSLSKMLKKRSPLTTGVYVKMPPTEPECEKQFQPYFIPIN

[4] = molecular target: T3, human ICOS, full length, expressed on cells (ICOS+293T cells) (human, UniProt Q9Y6W8 21-199); experiment: as above
T3 construct: This id also stands for ICOS on human T cells in the functional rows
T3 sequence: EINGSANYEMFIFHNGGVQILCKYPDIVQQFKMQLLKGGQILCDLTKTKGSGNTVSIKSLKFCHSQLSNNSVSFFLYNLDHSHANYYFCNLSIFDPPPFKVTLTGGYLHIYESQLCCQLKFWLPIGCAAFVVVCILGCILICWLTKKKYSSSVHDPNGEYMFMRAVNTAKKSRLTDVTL

[5] = molecular target: T4, human CD28, full length, expressed on cells (CD28+293T cells) (human, UniProt P10747 19-220); experiment: as above
T4 construct: This id also stands for CD28 on purified human T cells in the functional rows; also called CD28+ cells

[6] = molecular target: T5, B7-H2 (Y53A) mutant, full length with C terminal GFP tag, on 293T cells (human, UniProt O75144 19-302, The C-terminal GFP reporter is not carried in the letters.); experiment: flow cytometry; ICOSIg binding to 293T cells expressing the mutant
T5 construct: not shown: C-terminal GFP tag and any linker to it
T5 sequence: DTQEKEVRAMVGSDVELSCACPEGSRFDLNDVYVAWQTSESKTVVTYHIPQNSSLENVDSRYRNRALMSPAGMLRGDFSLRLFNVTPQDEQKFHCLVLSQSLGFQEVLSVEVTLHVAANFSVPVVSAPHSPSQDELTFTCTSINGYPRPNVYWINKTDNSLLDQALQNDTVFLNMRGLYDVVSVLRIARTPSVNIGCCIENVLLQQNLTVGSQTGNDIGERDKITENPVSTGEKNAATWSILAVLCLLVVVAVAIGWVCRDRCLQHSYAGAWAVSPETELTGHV
Text: (§3) These residues were all converted to alanine, a small […] amino acid with neutral charge, to avoid a large overall structure modulation (16).

[7] = molecular target: T6, B7-H2 (Y51A) mutant, full length with C terminal GFP tag, on 293T cells (human, UniProt O75144 19-302, The C-terminal GFP reporter is not carried in the letters.); experiment: as above
T6 construct: not shown: C-terminal GFP tag and any linker to it
T6 sequence: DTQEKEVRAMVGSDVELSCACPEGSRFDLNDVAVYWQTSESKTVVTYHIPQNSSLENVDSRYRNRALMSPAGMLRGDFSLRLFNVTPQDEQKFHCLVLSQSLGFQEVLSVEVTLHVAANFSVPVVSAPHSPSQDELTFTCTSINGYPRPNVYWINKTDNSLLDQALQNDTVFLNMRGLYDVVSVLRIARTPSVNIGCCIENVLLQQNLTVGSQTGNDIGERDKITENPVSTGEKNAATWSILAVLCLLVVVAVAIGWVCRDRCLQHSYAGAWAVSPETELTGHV
Text: as §3

[8] = molecular target: T1, human B7-H2Ig fusion protein; experiment: SPR (BIAcore 3000), ICOSIg injected over B7-H2Ig coupled at 500 RU, 1:1 fit; remark: listed apart in the source
Experimental: as §2, with “Protein” for “Surface Plasmon Resonance. Protein”, “(3).” for “20.”, “pulse” for “pulses”

[9] = molecular target: T1, human B7-H2Ig fusion protein; experiment: SPR (BIAcore 3000); ICOSIg injected over B7-H2Ig coupled to a CM5 chip; 1:1 interaction model
Experimental: as §1, §2

T4 sequence (P10747 19-220): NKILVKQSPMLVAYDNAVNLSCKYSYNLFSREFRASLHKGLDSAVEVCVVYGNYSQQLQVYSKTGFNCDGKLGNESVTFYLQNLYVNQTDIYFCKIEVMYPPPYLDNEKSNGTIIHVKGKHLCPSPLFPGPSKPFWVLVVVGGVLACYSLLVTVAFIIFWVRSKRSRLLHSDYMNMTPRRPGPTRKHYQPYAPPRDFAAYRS

fold higher affinity than CD28 for binding B7-H2 [1]: ~100 fold
Kd [2]: 16 nM
binding result [3]: no binding
binding result [4]: no binding
binding result [5]: no binding
binding result [6]: no binding
binding result [7]: no binding
Kd [8]: 16 nM
koff [9]: 0.004 s⁻¹
kon [9]: 240000 M⁻¹ s⁻¹
B1: human ICOSIg fusion protein (Fc fusion)
chain: EINGSANYEMFIFHNGGVQILCKYPDIVQQFKMQLLKGGQILCDLTKTKGSGNTVSIKSLKFCHSQLSNNSVSFFLYNLDHSHANYYFCNLSIFDPPPFKVTLTGGYLHIYESQLCCQLKF
notes: Bought from R&D Systems; Ig (Fc) part not given
